# Assay results from article PMC10074443.
# Experiments:
# C[C@@H](N)[C@H](N)C(=O)O = assay: continuous MesG/hydroxylamine coupled adenylation assay; type: biochemical, Paraburkholderia acidicola; conditions: co-substrate ATP; hydroxylamine as acceptor
# N[C@H](CF)[C@H](N)C(=O)O = assay: as above; type: biochemical, Paraburkholderia acidicola; conditions: co-substrate ATP; hydroxylamine as acceptor
substance,measurement,setting,value
A3 (adenylation domain of SulM) (Paraburkholderia acidicola),Km,C[C@@H](N)[C@H](N)C(=O)O,1.08 mM
same,Km,N[C@H](CF)[C@H](N)C(=O)O,20.7 mM
